Here are results for one substance from paper doi:10.1101/2021.12.31.474618.

For the assay, the target named is OsCBMIP-His (OsRMC-His), secreted from rice suspension-cultured cells (rice). Put plainly: BLI.

In turn, “MoCel6A as used for binding kinetics (BLItz) (enzyme)” displayed a Kd of 21.9 nM, a dissociation rate constant (koff) of 0.000845 s⁻¹ and a kon of 38900 M⁻¹ s⁻¹.
